The target of one data set is T1, TgCTPS (CTP synthase) (Toxoplasma gondii, UniProt B9Q379).
T1 sequence (B9Q379 1-652): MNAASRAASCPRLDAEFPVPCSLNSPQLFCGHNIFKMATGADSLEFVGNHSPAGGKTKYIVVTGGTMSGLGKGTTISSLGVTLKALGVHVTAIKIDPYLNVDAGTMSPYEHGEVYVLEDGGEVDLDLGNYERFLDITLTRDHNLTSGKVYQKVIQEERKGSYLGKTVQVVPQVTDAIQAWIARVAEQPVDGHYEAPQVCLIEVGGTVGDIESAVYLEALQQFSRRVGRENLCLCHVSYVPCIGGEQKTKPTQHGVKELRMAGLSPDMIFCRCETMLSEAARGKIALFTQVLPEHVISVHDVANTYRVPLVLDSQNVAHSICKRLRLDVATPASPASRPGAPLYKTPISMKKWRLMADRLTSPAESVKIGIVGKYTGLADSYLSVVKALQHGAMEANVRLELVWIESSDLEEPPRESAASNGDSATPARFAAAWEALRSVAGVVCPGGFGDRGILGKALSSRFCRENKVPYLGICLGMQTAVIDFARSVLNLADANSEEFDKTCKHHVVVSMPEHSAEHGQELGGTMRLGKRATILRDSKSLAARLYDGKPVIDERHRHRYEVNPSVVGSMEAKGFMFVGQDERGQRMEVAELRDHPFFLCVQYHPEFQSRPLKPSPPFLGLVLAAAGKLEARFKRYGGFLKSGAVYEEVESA
Nature of the data set: pyruvate kinase/lactate dehydrogenase-coupled assay with recombinant enzyme. It is filed as biochemical.

Substrate in data set [1]: NC(=O)CC[C@H](N)C(=O)O
Kind of data set: steady-state kinetics, coupled enzyme assay (Km). As to conditions: Mg2+ negative cooperativity in the binding of L-glutamine to the active site; 37.0 °C. It is filed as biochemical, Toxoplasma gondii.

Substrate in data set [2]: Nc1ncnc2c1ncn2[C@@H]1O[C@H](COP(=O)(O)OP(=O)(O)OP(=O)(O)O)[C@@H](O)[C@H]1O
Nature of the data set: steady-state kinetics, coupled enzyme assay (Km). The class given is biochemical, Toxoplasma gondii. As to conditions: Mg2+; 37.0 °C.

Substrate in the data set “purified protein”: O=c1ccn([C@@H]2O[C@H](COP(=O)(O)OP(=O)(O)OP(=O)(O)O)[C@@H](O)[C@H]2O)c(=O)[nH]1
Nature of the data set: purified protein. It is filed as biochemical, Toxoplasma gondii. As to conditions: Mg2+.

The term IC50 denotes the point on the concentration scale where inhibition reaches its midpoint. For the molecule `[N-]=[N+]=CC(=O)CC[C@H](N)C(=O)O` [DON, 6-diazo-5-oxo-L-norleucine], the concentration for half-maximal inhibition (IC50) at TgCTPS (CTP synthase) is about 40 nM.

B1: TgCTPS (CTP synthase) (Toxoplasma gondii) (protein)
chain: MNAASRAASCPRLDAEFPVPCSLNSPQLFCGHNIFKMATGADSLEFVGNHSPAGGKTKYIVVTGGTMSGLGKGTTISSLGVTLKALGVHVTAIKIDPYLNVDAGTMSPYEHGEVYVLEDGGEVDLDLGNYERFLDITLTRDHNLTSGKVYQKVIQEERKGSYLGKTVQVVPQVTDAIQAWIARVAEQPVDGHYEAPQVCLIEVGGTVGDIESAVYLEALQQFSRRVGRENLCLCHVSYVPCIGGEQKTKPTQHGVKELRMAGLSPDMIFCRCETMLSEAARGKIALFTQVLPEHVISVHDVANTYRVPLVLDSQNVAHSICKRLRLDVATPASPASRPGAPLYKTPISMKKWRLMADRLTSPAESVKIGIVGKYTGLADSYLSVVKALQHGAMEANVRLELVWIESSDLEEPPRESAASNGDSATPARFAAAWEALRSVAGVVCPGGFGDRGILGKALSSRFCRENKVPYLGICLGMQTAVIDFARSVLNLADANSEEFDKTCKHHVVVSMPEHSAEHGQELGGTMRLGKRATILRDSKSLAARLYDGKPVIDERHRHRYEVNPSVVGSMEAKGFMFVGQDERGQRMEVAELRDHPFFLCVQYHPEFQSRPLKPSPPFLGLVLAAAGKLEARFKRYGGFLKSGAVYEEVESA
As usually defined, the Km is the concentration of substrate that gives half-maximal velocity. By kcat is commonly meant the number of substrate molecules converted per active site and unit of time at saturation. One may read the kcat/Km as the second-order rate constant that governs catalysis at low substrate concentration. Regarding B1, in data set [1], the Km was 260 ± 40 µM, the kcat was found to be 29.6 s⁻¹ and the kcat/Km turned out to be 114000 M⁻¹ s⁻¹. In data set [2], the Km turned out to be 540 ± 50 µM, the kcat turned out to be 36 s⁻¹ and the kcat/Km is 66700 M⁻¹ s⁻¹. Further, in the data set “purified protein”, the K0.5 stood at 0.47 ± 0.03 mM.
